The supplement of paper PMC11246515
± gives the standard deviation of the averaged measurements.

Test: total protein half-life in vivo (active degradation + dilution); higher = more stable protein
[1] = E. coli NCM3722 delta-clpP, growth: N-lim chemostat, doubling time 6 h
[2] = E. coli NCM3722 delta-hslV, growth: N-lim chemostat, doubling time 6 h
[3] = E. coli NCM3722 delta-lon, growth: N-lim chemostat, doubling time 6 h
[4] = E. coli NCM3722 delta-smpB, growth: N-lim chemostat, doubling time 6 h
[5] = wild type E. coli NCM3722, growth: C-lim chemostat, doubling time 3 h
[6] = wild type E. coli NCM3722, growth: C-lim chemostat, doubling time 6 h
[7] = wild type E. coli NCM3722, growth: C-lim chemostat, doubling time 12 h
[8] = wild type E. coli NCM3722, growth: P-lim chemostat, doubling time 6 h
[9] = wild type E. coli NCM3722, growth: P-lim chemostat, doubling time 12 h
[10] = E. coli NCM3722 delta-clpP delta-lon delta-hslV, growth: N-lim chemostat, doubling time 6 h
[11] = wild type E. coli NCM3722, growth: N-lim chemostat, doubling time 6 h
[12] = wild type E. coli NCM3722, growth: N-lim chemostat, doubling time 12 h

Sequence | total protein half-life in vivo [1] [h] | total protein half-life in vivo [2] [h] | total protein half-life in vivo [3] [h] | total protein half-life in vivo [4] [h] | total protein half-life in vivo [5] [h] | total protein half-life in vivo [6] [h] | total protein half-life in vivo [7] [h] | total protein half-life in vivo [8] [h] | total protein half-life in vivo [9] [h] | total protein half-life in vivo [10] [h] | total protein half-life in vivo [11] [h] | total protein half-life in vivo [12] [h]
MIPLQHGLILAAILFVLGLTGLVIRRNLLFMLIGLEIMINASALAFVVAGSYWGQTDGQVMYILAISLAAAEASIGLALLLQLHRRRQNLNIDSVSEMRG [P0AFE4] | 6.43 | 7.8 | > 8 | 5.17 | 3.31 | 7.48 ± 0.41 | 11.7 | 7.16 ± 0.3 | 13.1 ± 1.5 |  |  | 
MIPQISQAPGVVQLVLNFLQELEQQGFTGDTATSYADRLTMSTDNSIYQLLPDAVVFPRSTADVALIARLAAQERYSSLIFTPRGGGTGTNGQALNQGIIVDMSRHMNRIIEINPEEGWVRVEAGVIKDQLNQYLKPFGYFFAPELSTSNRATLGGMINTDASGQGSLVYGKTSDHVLGVRAVLLGGDILDTQPLPVELAETLGKSNTTIGRIYNTVYQRCRQQRQLIIDNFPKLNRFLTGYDLRHVFNDEMTEFDLTRILTGSEGTLAFITEARLDITRLPKVRRLVNVKYDSFDSALRNAPFMVEARALSVETVDSKVLNLAREDIVWHSVSELITDVPDQEMLGLNIVEFAGDDEALIDERVNALCARLDELIASHQAGVIGWQVCRELAGVERIYAMRKKAVGLLGNAKGAAKPIPFAEDTCVPPEHLADYIAEFRALLDSHGLSYGMFGHVDAGVLHVRPALDMCDPQQEILMKQISDDVVALTAKYGGLLWGEHGKGFRAEYSPAFFGEELFAELRKVKAAFDPHNRLNPGKICPPEGLDAPMMKVDAVKRGTFDRQIPIAVRQQWRGAMECNGNGLCFNFDARSPMCPSMKITQNRIHSPKGRATLVREWLRLLADRGVDPLKLEQELPESGVSLRTLIARTRNSWHANKGEYDFSHEVKEAMSGCLACKACSTQCPIKIDVPEFRSRFLQLYHTRYLRPLRDHLVATVESYAPLMARAPKTFNFFINQPLVRKLSEKHIGMVDLPLLSVPSLQQQMVGHRSANMTLEQLESLNAEQKARTVLVVQDPFTSYYDAQVVADFVRLVEKLGFQPVLLPFSPNGKAQHIKGFLNRFAKTAKKTADFLNRMAKLGMPMVGVDPALVLCYRDEYKLALGEERGEFNVLLANEWLASALESQPVATVSGESWYFFGHCTEVTALPGAPAQWAAIFARFGAKLENVSVGCCGMAGTYGHEAKNHENSLGIYELSWHQAMQRLPRNRCLATGYSCRSQVKRVEGTGVRHPVQALLEIIK | 5.92 ± 0.38 | 6.06 ± 0.28 | 6.07 ± 0.22 | 5.58 ± 0.1 | 2.92 ± 0.41 | 5.76 ± 0.42 | 11.1 ± 0.65 | 5.88 ± 0.11 | 11.6 ± 0.3 | 5.93 ± 0.31 | 5.75 ± 0.096 | 12.3 ± 0.23
MIQKSKIKDLVVFTDENNSKYLNVLNDFLSYNINIIKVFRSIDDTKVMLIDTDYGKLILKVFSPKVKRNERFFKSLLKGDYYERLFEQTQKVRNEGLNTLNDFYLLAERKTLRFVHTYIMIIEYIDGIELCDMPDIDDALKNKIQQSINALHQHGMVSGDPHRGNFIIKNGEVRIIDLSGKRASAQRKAKDRIDLERHYGIKNEIRDLGYYLLVYRKKMRNFMRRLKGKPAR | 6.73 ± 0.18 | 5.7 ± 0.17 | 6.35 ± 0.15 | 6.04 ± 0.22 | 3.31 ± 0.043 | 5.885 ± 0.011 | 9.9 ± 1 | 5.84 ± 0.34 | 11.8 ± 0.82 |  | 5.86 ± 0.76 | 12.09 ± 0.019
MIQPISGPPPGQPPGQGDNLPSGTGNQPLSSQQRTSLESLMTKVTSLTQQQRAELWAGIRHDIGLSGDSPLLSRHFPAAEHNLAQRLLAAQKSHSARQLLAQLGEYLRLGNNRQAVTDYIRHNFGQTPLNQLSPEQLKTILTLLQEGKMVIPQPQQREATDRPLLPAEHNALKQLVTKLAAATGEPSKQIWQSMLELSGVKDGELIPAKLFNHLVTWLQARQTLSQQNTPTLESLQMTLKQPLDASELAALSAYIQQKYGLSAQSSLSSAQAEDILNQLYQRRVKGIDPRVMQPLLNPFPPMMDTLQNMATRPALWILLVAIILMLVWLVR | 3.889 ± 0.021 | 3.71 ± 0.25 | 3.18 ± 0.34 | 3.56 ± 0.12 | 2.64 ± 0.22 | 4.57 ± 0.41 | 6.56 | 3.705 ± 0.012 | 6.51 ± 0.24 | 3.57 ± 0.29 | 3.65 ± 0.16 | 5.38 ± 0.4
MIQSQINRNIRLDLADAILLSKAKKDLSFAEIADGTGLAEAFVTAALLGQQALPADAARLVGAKLDLDEDSILLLQMIPLRGCIDDRIPTDPTMYRFYEMLQVYGTTLKALVHEKFGDGIISAINFKLDVKKVADPEGGERAVITLDGKYLPTKPF |  |  | 5.12 |  |  | 5.48 | 10.6 ± 0.58 |  | 11.1 | 5.03 ± 0.21 | 3.64 | 11.9
MIRFEHVSKAYLGGRQALQGVTFHMQPGEMAFLTGHSGAGKSTLLKLICGIERPSAGKIWFSGHDITRLKNREVPFLRRQIGMIFQDHHLLMDRTVYDNVAIPLIIAGASGDDIRRRVSAALDKVGLLDKAKNFPIQLSGGEQQRVGIARAVVNKPAVLLADEPTGNLDDALSEGILRLFEEFNRVGVTVLMATHDINLISRRSYRMLTLSDGHLHGGVGHE [P0A9R7] |  | 5.57 ± 0.067 | 5.62 ± 0.4 | 5.32 ± 0.056 | 2.762 ± 0.02 | 5.52 ± 0.12 | 10.1 ± 0.31 | 5.26 ± 0.17 | 11.9 ± 2.3 | 5.85 ± 0.08 | 5.48 ± 0.17 | 9.44 ± 1.1
MIRLAPLITADVDTTTLPGGKASDAAQDFLALLSEALAGETTTDKAAPQLLVATDKPTTKGEPLISDIVSDAQQANLLIPVDETPPVINDEQSTSTPLTTAQTMALAAVADKNTTKDEKADDLNEDVTASLSALFAMLPGFDNTPKVTDAPSTVLPTEKPTLFTKLTSEQLTTAQPDDAPGTPAQPLTPLVAEAQSKAEVISTPSPVTAAASPLITPHQTQPLPTVAAPVLSAPLGSHEWQQSLSQHISLFTRQGQQSAELRLHPQDLGEVQISLKVDDNQAQIQMVSPHQHVRAALEAALPVLRTQLAESGIQLGQSNISGESFSGQQQAASQQQQSQRTANHEPLAGEDDDTLPVPVSLQGRVTGNSGVDIFA |  |  |  |  | 0.287 | 0.34 |  |  |  | 2.6 |  | 
